Results taken from the supplement of paper PMC10065799, “High-throughput profiling of sequence recognition by tyrosine kinases and SH2 domains using bacterial peptide display” (eLife, 2023).

These sequences were tested against Fyn (UniProt P06241) (assay: phosphorylation enrichment, bacterial display (enrichment ratio); higher = better substrate or ligand; peptides without Tyr show the background).
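Also: 11-residue human phosphosite peptides and single-mutation variants displayed on the E. coli surface, counted by deep sequencing, each peptide's frequency after selection divided by its frequency in the unselected input library; frequency after pTyr selection over input frequency; kinase dosed for 20-30% of maximal phosphorylation in three min.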

Sequence of Fyn (P06241 whole entry, looked up): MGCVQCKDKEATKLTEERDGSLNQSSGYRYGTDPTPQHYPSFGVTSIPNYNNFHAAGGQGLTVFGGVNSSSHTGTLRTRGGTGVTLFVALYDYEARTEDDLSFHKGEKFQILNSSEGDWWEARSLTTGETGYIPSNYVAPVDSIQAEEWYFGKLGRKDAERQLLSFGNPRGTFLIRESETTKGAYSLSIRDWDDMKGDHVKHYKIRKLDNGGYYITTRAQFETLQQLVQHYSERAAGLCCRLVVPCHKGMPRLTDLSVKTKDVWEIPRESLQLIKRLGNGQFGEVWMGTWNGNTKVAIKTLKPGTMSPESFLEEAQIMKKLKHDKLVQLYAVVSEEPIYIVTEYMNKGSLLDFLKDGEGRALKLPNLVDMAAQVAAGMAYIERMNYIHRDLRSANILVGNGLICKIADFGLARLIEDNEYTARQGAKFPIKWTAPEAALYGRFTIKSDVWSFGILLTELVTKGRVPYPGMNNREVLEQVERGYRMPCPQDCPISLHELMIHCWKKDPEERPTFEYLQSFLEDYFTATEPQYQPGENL

In order of falling phosphorylation enrichment:
1. ANAFIYDVQLP [L1CAM_Y420_V421D_YF]  6.97
2. EDEGLYTVRVP [MYOM3_Y343_M344T]  3.52
3. PSAELYSNALP [PDGFRB_Y716]  1.66
4. LDTIQYSKHPP [SQSTM1_Y433]  0.917
5. PEEKVYLSRGD [CRACR2A_Y141_H136P]  0.88
6. KLADIYQAELR [GFAP_Y116_V115I]  0.795
7. FDGKDYIALNE [HLA-A_Y147_YF]  0.7
8. LSQAKYQIRFR [CRLF1_Y272_F268S_YF]  0.621
9. QEIATYPRLLE [KRT14_Y415_R416P]  0.611
10. FVSIVYNDSGE [TSC2_Y1650]  0.596
11. TAALWYIFLHT [ENG_Y612_S615L_YF]  0.555
12. NLGQQYNSPQE [UMPS_Y432]  0.495
13. SIRYNYLLDVL [FGFR4_Y237]  0.495
14. GEFHVYRHLRR [PRKRIP1_Y82]  0.484
15. DRLAVCIDRVR [LMNA_Y45_Y45C]  0.46
16. DEGVNHFMSKG [FBXO8_Y156_Y156H]  0.443
17. GRQWNYVASMS [KLHL4_Y552]  0.419
18. INNIDYFKKTT [FGFR2_Y656_YF]  0.409
19. EQKKNYNAMKK [SCN5A_Y1495_Y1494N]  0.394
20. NKVKFYIPYMN [NCR1_Y84_D87Y]  0.394
21. LYRYGYANTSE [SI_Y1233_C1229Y]  0.383
22. TKVVHYWKWIK [KLK2_Y249_R250W]  0.346

What follows are sequences tested against EPHB2 (UniProt P29323) in the same assay as above.
Sequence of EPHB2 (P29323 whole entry, looked up): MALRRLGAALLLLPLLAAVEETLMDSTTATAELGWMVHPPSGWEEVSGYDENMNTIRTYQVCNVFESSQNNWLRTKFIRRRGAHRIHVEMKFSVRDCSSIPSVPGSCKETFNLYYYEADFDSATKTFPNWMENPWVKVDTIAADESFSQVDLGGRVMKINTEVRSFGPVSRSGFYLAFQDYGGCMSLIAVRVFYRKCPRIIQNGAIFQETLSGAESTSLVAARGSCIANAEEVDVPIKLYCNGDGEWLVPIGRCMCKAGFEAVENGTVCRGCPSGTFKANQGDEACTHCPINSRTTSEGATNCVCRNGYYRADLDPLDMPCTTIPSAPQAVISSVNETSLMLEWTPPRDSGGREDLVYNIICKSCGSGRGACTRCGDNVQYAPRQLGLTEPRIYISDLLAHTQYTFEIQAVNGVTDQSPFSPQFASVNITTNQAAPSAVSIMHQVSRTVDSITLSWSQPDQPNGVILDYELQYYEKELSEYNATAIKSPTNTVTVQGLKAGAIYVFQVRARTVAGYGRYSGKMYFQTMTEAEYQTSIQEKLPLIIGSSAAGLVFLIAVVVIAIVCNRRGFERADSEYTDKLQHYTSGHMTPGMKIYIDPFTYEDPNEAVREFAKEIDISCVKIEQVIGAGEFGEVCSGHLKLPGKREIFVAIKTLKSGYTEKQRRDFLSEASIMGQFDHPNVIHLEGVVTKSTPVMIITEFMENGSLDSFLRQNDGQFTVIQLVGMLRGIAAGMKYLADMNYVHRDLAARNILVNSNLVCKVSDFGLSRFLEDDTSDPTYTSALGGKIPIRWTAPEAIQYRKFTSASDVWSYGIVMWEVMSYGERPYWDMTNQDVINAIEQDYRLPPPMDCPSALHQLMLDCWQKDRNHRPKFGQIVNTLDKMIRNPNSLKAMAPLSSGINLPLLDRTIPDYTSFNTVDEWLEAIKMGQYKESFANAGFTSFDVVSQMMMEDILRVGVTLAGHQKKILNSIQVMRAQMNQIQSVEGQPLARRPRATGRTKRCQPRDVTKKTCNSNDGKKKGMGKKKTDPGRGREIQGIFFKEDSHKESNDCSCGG

In order of rising phosphorylation enrichment:
1. LSQAKYQIRFR [CRLF1_Y272_F268S_YF]  0.286
2. TKVVHYWKWIK [KLK2_Y249_R250W]  0.364
3. LYRYGYANTSE [SI_Y1233_C1229Y]  0.39
4. INNIDYFKKTT [FGFR2_Y656_YF]  0.415
5. DEGVNHFMSKG [FBXO8_Y156_Y156H]  0.424
6. GEFHVYRHLRR [PRKRIP1_Y82]  0.465
7. NKVKFYIPYMN [NCR1_Y84_D87Y]  0.496
8. DRLAVCIDRVR [LMNA_Y45_Y45C]  0.518
9. SIRYNYLLDVL [FGFR4_Y237]  0.524
10. GRQWNYVASMS [KLHL4_Y552]  0.549
11. EQKKNYNAMKK [SCN5A_Y1495_Y1494N]  0.561
12. PEEKVYLSRGD [CRACR2A_Y141_H136P]  0.573
13. NLGQQYNSPQE [UMPS_Y432]  0.579
14. KLADIYQAELR [GFAP_Y116_V115I]  0.595
15. EDEGLYTVRVP [MYOM3_Y343_M344T]  0.692
16. FVSIVYNDSGE [TSC2_Y1650]  0.702
17. FDGKDYIALNE [HLA-A_Y147_YF]  0.704
18. TAALWYIFLHT [ENG_Y612_S615L_YF]  0.939
19. LDTIQYSKHPP [SQSTM1_Y433]  0.998
20. QEIATYPRLLE [KRT14_Y415_R416P]  1.04
21. ANAFIYDVQLP [L1CAM_Y420_V421D_YF]  1.3
22. PSAELYSNALP [PDGFRB_Y716]  1.91

These sequences were tested on c-Src in the same assay as above.

In order of falling phosphorylation enrichment:
1. ANAFIYDVQLP [L1CAM_Y420_V421D_YF]  4.96
2. EDEGLYTVRVP [MYOM3_Y343_M344T]  3.4
3. KLADIYQAELR [GFAP_Y116_V115I]  1.62
4. PSAELYSNALP [PDGFRB_Y716]  1.38
5. PEEKVYLSRGD [CRACR2A_Y141_H136P]  1.01
6. LDTIQYSKHPP [SQSTM1_Y433]  0.649
7. QEIATYPRLLE [KRT14_Y415_R416P]  0.595
8. EQKKNYNAMKK [SCN5A_Y1495_Y1494N]  0.524
9. GEFHVYRHLRR [PRKRIP1_Y82]  0.518
10. FVSIVYNDSGE [TSC2_Y1650]  0.516
11. TAALWYIFLHT [ENG_Y612_S615L_YF]  0.508
12. INNIDYFKKTT [FGFR2_Y656_YF]  0.5
13. NKVKFYIPYMN [NCR1_Y84_D87Y]  0.495
14. TKVVHYWKWIK [KLK2_Y249_R250W]  0.474
15. SIRYNYLLDVL [FGFR4_Y237]  0.443
16. DRLAVCIDRVR [LMNA_Y45_Y45C]  0.436
17. LSQAKYQIRFR [CRLF1_Y272_F268S_YF]  0.421
18. FDGKDYIALNE [HLA-A_Y147_YF]  0.386
19. NLGQQYNSPQE [UMPS_Y432]  0.374
20. GRQWNYVASMS [KLHL4_Y552]  0.371
21. LYRYGYANTSE [SI_Y1233_C1229Y]  0.351
22. DEGVNHFMSKG [FBXO8_Y156_Y156H]  0.297

Each sequence was assayed against Fes (UniProt P07332) in the same assay as above.
Sequence of Fes (P07332 whole entry, looked up): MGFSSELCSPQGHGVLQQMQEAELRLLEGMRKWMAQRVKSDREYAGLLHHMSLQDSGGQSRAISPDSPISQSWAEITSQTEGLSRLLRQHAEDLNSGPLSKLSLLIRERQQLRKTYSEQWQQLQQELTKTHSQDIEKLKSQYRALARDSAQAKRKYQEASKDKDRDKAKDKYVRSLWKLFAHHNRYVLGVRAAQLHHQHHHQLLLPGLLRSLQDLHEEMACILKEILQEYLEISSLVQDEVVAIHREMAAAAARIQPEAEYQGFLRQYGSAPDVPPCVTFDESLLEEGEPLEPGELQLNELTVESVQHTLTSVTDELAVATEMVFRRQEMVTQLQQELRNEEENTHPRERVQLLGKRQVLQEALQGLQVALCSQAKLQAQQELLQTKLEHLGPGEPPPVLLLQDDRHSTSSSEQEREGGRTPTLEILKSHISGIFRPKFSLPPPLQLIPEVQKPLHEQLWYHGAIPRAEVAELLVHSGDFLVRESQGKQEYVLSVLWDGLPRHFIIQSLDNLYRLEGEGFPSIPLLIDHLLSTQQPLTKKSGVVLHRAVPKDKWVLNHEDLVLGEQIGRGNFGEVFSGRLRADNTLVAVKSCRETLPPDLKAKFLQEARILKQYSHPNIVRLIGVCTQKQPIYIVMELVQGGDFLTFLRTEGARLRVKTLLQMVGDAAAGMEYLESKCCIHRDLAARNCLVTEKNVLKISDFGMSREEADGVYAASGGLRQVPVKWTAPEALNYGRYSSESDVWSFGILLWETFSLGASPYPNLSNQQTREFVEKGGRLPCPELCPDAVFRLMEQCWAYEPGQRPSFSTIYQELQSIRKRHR

In order of falling phosphorylation enrichment:
1. TAALWYIFLHT [ENG_Y612_S615L_YF]  1.86
2. PSAELYSNALP [PDGFRB_Y716]  1.79
3. PEEKVYLSRGD [CRACR2A_Y141_H136P]  1.77
4. LDTIQYSKHPP [SQSTM1_Y433]  1.73
5. QEIATYPRLLE [KRT14_Y415_R416P]  1.62
6. EDEGLYTVRVP [MYOM3_Y343_M344T]  1.24
7. DRLAVCIDRVR [LMNA_Y45_Y45C]  1.15
8. EQKKNYNAMKK [SCN5A_Y1495_Y1494N]  1.07
9. FDGKDYIALNE [HLA-A_Y147_YF]  1.06
10. NKVKFYIPYMN [NCR1_Y84_D87Y]  1.06
11. FVSIVYNDSGE [TSC2_Y1650]  0.993
12. TKVVHYWKWIK [KLK2_Y249_R250W]  0.975
13. NLGQQYNSPQE [UMPS_Y432]  0.974
14. ANAFIYDVQLP [L1CAM_Y420_V421D_YF]  0.938
15. GEFHVYRHLRR [PRKRIP1_Y82]  0.863
16. KLADIYQAELR [GFAP_Y116_V115I]  0.839
17. LYRYGYANTSE [SI_Y1233_C1229Y]  0.775
18. GRQWNYVASMS [KLHL4_Y552]  0.754
19. SIRYNYLLDVL [FGFR4_Y237]  0.745
20. LSQAKYQIRFR [CRLF1_Y272_F268S_YF]  0.672
21. INNIDYFKKTT [FGFR2_Y656_YF]  0.648
22. DEGVNHFMSKG [FBXO8_Y156_Y156H]  0.64
